From article doi:10.1101/498196 (bioRxiv, 2018)

Tests used:
AUC = molecular target: the molecule itself; experiment: AUC
crystal structure = molecular target: the molecule itself; experiment: crystal structure
bead aggregation assay = molecular target: the molecule itself; experiment: bead aggregation assay

Protein | stoichiometry N (AUC) | binding result (bead aggregation assay) | further results
PCDH1 EC1-5 C375S C548S (domain or fragment) TRVVYKVPEEQPPNTLIGSLAADYGFPDVGHLYKLEVGAPYLRVDGKTGDIFTTETSIDREGLRECQNQLPGDPCILEFEVSITDLVQNGSPRLLEGQIEVQDINDNTPNFASPVITLAIPENTNIGSLFPIPLASDRDAGPNGVASYELQAGPEAQELFGLQVAEDQEEKQPQLIVMGNLDRERWDSYDLTIKVQDGGSPPRASSALLRVTVLDTNDNAPKFERPSYEAELSENSPIGHSVIQVKANDSDQGANAEIEYTFHQAPEVVRRLLRLDRNTGLITVQGPVDREDLSTLRFSVLAKDRGTNPKSARAQVVVTVKDMNDNAPTIEIRGIGLVTHQDGMANISEDVAEETAVALVQVSDRDEGENAAVTSVVAGDVPFQLRQASETGSDSKKKYFLQTTTPLDYEKVKDYTIEIVAVDSGNPPLSSTNSLKVQVVDVNDNAPVFTQSVTEVAFPENNKPGEVIAEITASDADSGSNAELVYSLEPEPAAKGLFTISPETGEIQVKTSLDREQRESYELKVVAADRGSPSLQGTATVLVNVLDSNDND | 2 |  | Kd (AUC): < 5 µM
PCDH1 EC1-5 C375S C548S V115R (domain or fragment) TRVVYKVPEEQPPNTLIGSLAADYGFPDVGHLYKLEVGAPYLRVDGKTGDIFTTETSIDREGLRECQNQLPGDPCILEFEVSITDLVQNGSPRLLEGQIEVQDINDNTPNFASPRITLAIPENTNIGSLFPIPLASDRDAGPNGVASYELQAGPEAQELFGLQVAEDQEEKQPQLIVMGNLDRERWDSYDLTIKVQDGGSPPRASSALLRVTVLDTNDNAPKFERPSYEAELSENSPIGHSVIQVKANDSDQGANAEIEYTFHQAPEVVRRLLRLDRNTGLITVQGPVDREDLSTLRFSVLAKDRGTNPKSARAQVVVTVKDMNDNAPTIEIRGIGLVTHQDGMANISEDVAEETAVALVQVSDRDEGENAAVTSVVAGDVPFQLRQASETGSDSKKKYFLQTTTPLDYEKVKDYTIEIVAVDSGNPPLSSTNSLKVQVVDVNDNAPVFTQSVTEVAFPENNKPGEVIAEITASDADSGSNAELVYSLEPEPAAKGLFTISPETGEIQVKTSLDREQRESYELKVVAADRGSPSLQGTATVLVNVLDSNDND | 2 |  | 
hs PCDH1 EC1-4bc (domain or fragment) TRVVYKVPEEQPPNTLIGSLAADYGFPDVGHLYKLEVGAPYLRVDGKTGDIFTTETSIDREGLRECQNQLPGDPCILEFEVSITDLVQNGSPRLLEGQIEVQDINDNTPNFASPVITLAIPENTNIGSLFPIPLASDRDAGPNGVASYELQAGPEAQELFGLQVAEDQEEKQPQLIVMGNLDRERWDSYDLTIKVQDGGSPPRASSALLRVTVLDTNDNAPKFERPSYEAELSENSPIGHSVIQVKANDSDQGANAEIEYTFHQAPEVVRRLLRLDRNTGLITVQGPVDREDLSTLRFSVLAKDRGTNPKSARAQVVVTVKDMNDNAPTIEIRGIGLVTHQDGMANISEDVAEETAVALVQVSDRDEGENAAVTCVVAGDVPFQLRQASETGSDSKKKYFLQTTTPLDYEKVKDYTIEIVAVDSGNPPLSSTNSLKVQVVDVNDNA |  |  | binding result (crystal structure): binds
PCDH1 EC1-4 C375S (domain or fragment) TRVVYKVPEEQPPNTLIGSLAADYGFPDVGHLYKLEVGAPYLRVDGKTGDIFTTETSIDREGLRECQNQLPGDPCILEFEVSITDLVQNGSPRLLEGQIEVQDINDNTPNFASPVITLAIPENTNIGSLFPIPLASDRDAGPNGVASYELQAGPEAQELFGLQVAEDQEEKQPQLIVMGNLDRERWDSYDLTIKVQDGGSPPRASSALLRVTVLDTNDNAPKFERPSYEAELSENSPIGHSVIQVKANDSDQGANAEIEYTFHQAPEVVRRLLRLDRNTGLITVQGPVDREDLSTLRFSVLAKDRGTNPKSARAQVVVTVKDMNDNAPTIEIRGIGLVTHQDGMANISEDVAEETAVALVQVSDRDEGENAAVTSVVAGDVPFQLRQASETGSDSKKKYFLQTTTPLDYEKVKDYTIEIVAVDSGNPPLSSTNSLKVQVVDVNDNA | 2 |  | Kd (AUC): < 5 µM
PCDH1 EC1-4Fc (Fc fusion) TRVVYKVPEEQPPNTLIGSLAADYGFPDVGHLYKLEVGAPYLRVDGKTGDIFTTETSIDREGLRECQNQLPGDPCILEFEVSITDLVQNGSPRLLEGQIEVQDINDNTPNFASPVITLAIPENTNIGSLFPIPLASDRDAGPNGVASYELQAGPEAQELFGLQVAEDQEEKQPQLIVMGNLDRERWDSYDLTIKVQDGGSPPRASSALLRVTVLDTNDNAPKFERPSYEAELSENSPIGHSVIQVKANDSDQGANAEIEYTFHQAPEVVRRLLRLDRNTGLITVQGPVDREDLSTLRFSVLAKDRGTNPKSARAQVVVTVKDMNDNAPTIEIRGIGLVTHQDGMANISEDVAEETAVALVQVSDRDEGENAAVTCVVAGDVPFQLRQASETGSDSKKKYFLQTTTPLDYEKVKDYTIEIVAVDSGNPPLSSTNSLKVQVVDVNDNA |  | binds | 
hs PCDH1 EC1-4mc (domain or fragment, sugars observed at N248 (N-linked) and S430 (O-linked)) TRVVYKVPEEQPPNTLIGSLAADYGFPDVGHLYKLEVGAPYLRVDGKTGDIFTTETSIDREGLRECQNQLPGDPCILEFEVSITDLVQNGSPRLLEGQIEVQDINDNTPNFASPVITLAIPENTNIGSLFPIPLASDRDAGPNGVASYELQAGPEAQELFGLQVAEDQEEKQPQLIVMGNLDRERWDSYDLTIKVQDGGSPPRASSALLRVTVLDTNDNAPKFERPSYEAELSENSPIGHSVIQVKANDSDQGANAEIEYTFHQAPEVVRRLLRLDRNTGLITVQGPVDREDLSTLRFSVLAKDRGTNPKSARAQVVVTVKDMNDNAPTIEIRGIGLVTHQDGMANISEDVAEETAVALVQVSDRDEGENAAVTCVVAGDVPFQLRQASETGSDSKKKYFLQTTTPLDYEKVKDYTIEIVAVDSGNPPLSSTNSLKVQVVDVNDNA |  |  | binding result (crystal structure): binds
PCDH1 EC1-7Fc (Fc fusion) TRVVYKVPEEQPPNTLIGSLAADYGFPDVGHLYKLEVGAPYLRVDGKTGDIFTTETSIDREGLRECQNQLPGDPCILEFEVSITDLVQNGSPRLLEGQIEVQDINDNTPNFASPVITLAIPENTNIGSLFPIPLASDRDAGPNGVASYELQAGPEAQELFGLQVAEDQEEKQPQLIVMGNLDRERWDSYDLTIKVQDGGSPPRASSALLRVTVLDTNDNAPKFERPSYEAELSENSPIGHSVIQVKANDSDQGANAEIEYTFHQAPEVVRRLLRLDRNTGLITVQGPVDREDLSTLRFSVLAKDRGTNPKSARAQVVVTVKDMNDNAPTIEIRGIGLVTHQDGMANISEDVAEETAVALVQVSDRDEGENAAVTCVVAGDVPFQLRQASETGSDSKKKYFLQTTTPLDYEKVKDYTIEIVAVDSGNPPLSSTNSLKVQVVDVNDNAPVFTQSVTEVAFPENNKPGEVIAEITASDADSGSNAELVYSLEPEPAAKGLFTISPETGEIQVKTSLDREQRESYELKVVAADRGSPSLQGTATVLVNVLDCNDNDPKFMLSGYNFSVMENMPALSPVGMVTVIDGDKGENAQVQLSVEQDNGDFVIQNGTGTILSSLSFDREQQSTYTFQLKAVDGGVPPRSAYVGVTINVLDENDNAPYITAPSNTSHKLLTPQTRLGETVSQVAAEDFDSGVNAELIYSIAGGNPYGLFQIGSHSGAITLEKEIERRHHGLHRLVVKVSDRGKPPRYGTALVHLYVNETLANRTLLETLLGHSLDTPLDIDIAGDPEYERSKQRGN |  | binds | 
PCDH1 EC1-7Fc V115R (Fc fusion) TRVVYKVPEEQPPNTLIGSLAADYGFPDVGHLYKLEVGAPYLRVDGKTGDIFTTETSIDREGLRECQNQLPGDPCILEFEVSITDLVQNGSPRLLEGQIEVQDINDNTPNFASPRITLAIPENTNIGSLFPIPLASDRDAGPNGVASYELQAGPEAQELFGLQVAEDQEEKQPQLIVMGNLDRERWDSYDLTIKVQDGGSPPRASSALLRVTVLDTNDNAPKFERPSYEAELSENSPIGHSVIQVKANDSDQGANAEIEYTFHQAPEVVRRLLRLDRNTGLITVQGPVDREDLSTLRFSVLAKDRGTNPKSARAQVVVTVKDMNDNAPTIEIRGIGLVTHQDGMANISEDVAEETAVALVQVSDRDEGENAAVTCVVAGDVPFQLRQASETGSDSKKKYFLQTTTPLDYEKVKDYTIEIVAVDSGNPPLSSTNSLKVQVVDVNDNAPVFTQSVTEVAFPENNKPGEVIAEITASDADSGSNAELVYSLEPEPAAKGLFTISPETGEIQVKTSLDREQRESYELKVVAADRGSPSLQGTATVLVNVLDCNDNDPKFMLSGYNFSVMENMPALSPVGMVTVIDGDKGENAQVQLSVEQDNGDFVIQNGTGTILSSLSFDREQQSTYTFQLKAVDGGVPPRSAYVGVTINVLDENDNAPYITAPSNTSHKLLTPQTRLGETVSQVAAEDFDSGVNAELIYSIAGGNPYGLFQIGSHSGAITLEKEIERRHHGLHRLVVKVSDRGKPPRYGTALVHLYVNETLANRTLLETLLGHSLDTPLDIDIAGDPEYERSKQRGN |  | binds | 
PCDH1 EC1-7Fc C375S C548S (Fc fusion) TRVVYKVPEEQPPNTLIGSLAADYGFPDVGHLYKLEVGAPYLRVDGKTGDIFTTETSIDREGLRECQNQLPGDPCILEFEVSITDLVQNGSPRLLEGQIEVQDINDNTPNFASPVITLAIPENTNIGSLFPIPLASDRDAGPNGVASYELQAGPEAQELFGLQVAEDQEEKQPQLIVMGNLDRERWDSYDLTIKVQDGGSPPRASSALLRVTVLDTNDNAPKFERPSYEAELSENSPIGHSVIQVKANDSDQGANAEIEYTFHQAPEVVRRLLRLDRNTGLITVQGPVDREDLSTLRFSVLAKDRGTNPKSARAQVVVTVKDMNDNAPTIEIRGIGLVTHQDGMANISEDVAEETAVALVQVSDRDEGENAAVTSVVAGDVPFQLRQASETGSDSKKKYFLQTTTPLDYEKVKDYTIEIVAVDSGNPPLSSTNSLKVQVVDVNDNAPVFTQSVTEVAFPENNKPGEVIAEITASDADSGSNAELVYSLEPEPAAKGLFTISPETGEIQVKTSLDREQRESYELKVVAADRGSPSLQGTATVLVNVLDSNDNDPKFMLSGYNFSVMENMPALSPVGMVTVIDGDKGENAQVQLSVEQDNGDFVIQNGTGTILSSLSFDREQQSTYTFQLKAVDGGVPPRSAYVGVTINVLDENDNAPYITAPSNTSHKLLTPQTRLGETVSQVAAEDFDSGVNAELIYSIAGGNPYGLFQIGSHSGAITLEKEIERRHHGLHRLVVKVSDRGKPPRYGTALVHLYVNETLANRTLLETLLGHSLDTPLDIDIAGDPEYERSKQRGN |  | binds | 
